Test results from patent US20140186363A1 (UNIVERSITY OF ZURICH, published 2014).

T1: MAGEA4 (UniProt P43358 1-317, limits assumed)
T1 construct: also called recombinant MAGEA4-protein; CT1.4
T1 sequence (looked up): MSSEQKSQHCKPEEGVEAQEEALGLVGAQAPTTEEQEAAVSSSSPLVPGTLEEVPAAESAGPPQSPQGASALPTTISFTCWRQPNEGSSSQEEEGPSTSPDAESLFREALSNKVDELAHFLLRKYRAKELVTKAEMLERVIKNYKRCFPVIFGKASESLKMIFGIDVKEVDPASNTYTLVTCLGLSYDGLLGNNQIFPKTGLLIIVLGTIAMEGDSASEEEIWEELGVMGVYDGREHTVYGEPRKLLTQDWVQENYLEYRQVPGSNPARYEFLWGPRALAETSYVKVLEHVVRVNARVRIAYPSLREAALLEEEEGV

T2: MAGEA3 peptide no 19
T2 construct: also called MAGEA3 aa 181-200
T2 peptide: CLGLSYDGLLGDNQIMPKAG

T3: MAGEA3 peptide no 20
T3 construct: also called MAGEA3 aa 191-210
T3 peptide: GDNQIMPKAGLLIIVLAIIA

T4: MAGEA3 peptide no 25
T4 construct: also called MAGEA3 aa 241-260
T4 peptide: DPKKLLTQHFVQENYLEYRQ

T5: MAGEA3 peptide no 7
T5 construct: also called MAGEA3 aa 61-80
T5 peptide: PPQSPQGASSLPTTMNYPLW

T6: MAGEA3 peptide no 9
T6 construct: also called MAGEA3 aa 81-100
T6 peptide: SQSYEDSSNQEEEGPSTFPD

T7: MAGEA3 peptide no 1
T7 construct: also called MAGEA3 aa 1-20
T7 peptide: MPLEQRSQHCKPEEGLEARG

T8: MAGEA3 peptide no 11
T8 construct: also called MAGEA3 aa 101-120
T8 peptide: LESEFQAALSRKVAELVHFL

T9: MAGEA3 peptide no 15
T9 construct: also called MAGEA3 aa 141-160
T9 peptide: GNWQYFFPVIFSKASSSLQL

T10: MAGEA3 peptide no 12
T10 construct: also called MAGEA3 aa 111-130
T10 peptide: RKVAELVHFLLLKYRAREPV

T11: MAGEA3 peptide no 17
T11 construct: also called MAGEA3 aa 161-180
T11 peptide: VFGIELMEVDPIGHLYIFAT

T12: MAGEA3 peptide no 10
T12 construct: also called MAGEA3 aa 91-110
T12 peptide: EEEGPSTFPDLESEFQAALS

T13: MAGEA3 peptide no 26
T13 construct: also called MAGEA3 aa 251-270
T13 peptide: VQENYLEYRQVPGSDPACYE

T14: MAGEA3 peptide no 4
T14 construct: also called MAGEA3 aa 31-50
T14 peptide: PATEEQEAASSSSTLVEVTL

T15: MAGEA3 peptide no 22
T15 construct: also called MAGEA3 aa 211-230
T15 peptide: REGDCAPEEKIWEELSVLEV

T16: MAGEA3 peptide no 24
T16 construct: also called MAGEA3 aa 231-250
T16 peptide: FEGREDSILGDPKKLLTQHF

T17: MAGEA3 peptide no 13
T17 construct: also called MAGEA3 aa 121-140
T17 peptide: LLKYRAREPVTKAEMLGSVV

T18: MAGEA3 peptide no 30
T18 construct: also called MAGEA3 aa 291-310
T18 peptide: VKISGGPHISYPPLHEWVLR

T19: MAGEA3 peptide no 14
T19 construct: also called MAGEA3 aa 131-150
T19 peptide: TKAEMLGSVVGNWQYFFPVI

T20: MAGEA3 peptide no 16
T20 construct: also called MAGEA3 aa 151-170
T20 peptide: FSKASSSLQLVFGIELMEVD

T21: MAGEA3 peptide no 31
T21 construct: also called MAGEA3 aa 295-314
T21 peptide: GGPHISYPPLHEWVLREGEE

T22: MAGEA3 peptide no 27
T22 construct: also called MAGEA3 aa 261-280
T22 peptide: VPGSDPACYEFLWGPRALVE

B1: 102G10 (antibody, V domains shown)
VH: EVQLVESGGGLVKPGGSLRLSCAASGFTFSGNSMNWVRQAPGKGLEWVSSISSSSGYIYYADSVKGRFTVSRDNAKNSLYLQMNSLRAEDTAVYYCATWPVTTARVGYWGQGTLVTVSS
VL: QSVLTQPPSASGTPGQRVTISCSGSSSNIGSNYVYWHQQLPGTAPKLLIYRHDQRPSGVPDRFSGSKSGTSASLAISGLRSEDEADYYCAAWDDSLSAWVFGGGTKLTVL
notes: Patient-derived human antibody made recombinantly; also called human monoclonal antibody 102G10
B2: 32H2 (antibody, V domains shown)
VH: QVQLVESGGGVVQPGRSLRLSCAASGFTFSSNAMHWVRQAPGKGLEWVAVISHDGSNKYYADSVKGRFTISRDNSKNTLYLQMNSLRAEDTAVYYCARDGSGSYFNLDYWGQGTLVTVSS
VL: QSALTQPASVSGSPGQSITISCTGTSSDVGGYNYVSWYQQHPGKAPKLMIYEVSNRPSGVSNRFSGSKSGNTASLTISGLQAEDEADYYCSSYTSSSTLVFGTGTKVTVL
notes: Patient-derived human antibody made recombinantly; also called human monoclonal antibody 32H2
B3: 34G9 (antibody, V domains shown)
VH: EVQLEESGGDLVQPGGSLRLSCAASGFTFSHYWMHWVRQAPGKGLVWVSRINSDGSSTSYADSVKGRFTISRDNAKNTLYLQMNSLRAEDTAVYYCARIGSDGYNYDFWGQGTLVTVSS
VL: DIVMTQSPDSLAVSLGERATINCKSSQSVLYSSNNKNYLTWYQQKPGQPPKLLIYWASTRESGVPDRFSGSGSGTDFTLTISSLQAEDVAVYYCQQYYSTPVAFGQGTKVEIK
notes: Patient-derived human antibody made recombinantly; also called human monoclonal antibody 34G9

Tests used:
[1] = molecular target: T1, MAGEA4; assay: Western blot of recombinant protein, anti-human IgG-HRP
Experimental: Recombinant MAGEA3- and recombinant MAGEA4-protein were separated in SDS-PAGE and blotted onto membranes. Membranes were incubated with human antibodies 122G3 or 32H2. Binding of human antibodies to proteins on the membrane was evaluated using an HRP-labeled goat anti human IgG (Jackson Immunoresearch, Milan Analytica AG, Rheinfelden, Switzerland). The results are depicted in FIG. 3.

[2] = molecular target: T2, MAGEA3 peptide no 19; assay: peptide ELISA (coated 20mer) [Figure 1]
Experimental: (§1) 20mer peptides spanning the entire MAGEA3 protein with 10 aa overlaps shared by each adjacent peptide (Peptides&Elephants, Nuthetal, Germany) were used to coat Maxisorp ELISA plates (Nunc, Rochester, N.Y.). As control a 20mer peptide representing amino acids 40-21 from the NY-ESO-1 protein was used (rev). The numbering of amino acids of MAGEA3 is based on SEQ ID No:41.
(§2) Human recombinant antibody was used at a concentration of 1 μg/ml. Bound human antibody was detected using horseradish peroxidase-conjugated goat anti-human IgG Fc-gamma specific antibodies (Jackson ImmunoResearch, Europe Ltd., Cambridgeshire, UK).

[3] = molecular target: T3, MAGEA3 peptide no 20; assay: peptide ELISA (coated 20mer) [Figure 1]
Experimental: as §1, §2

[4] = molecular target: T4, MAGEA3 peptide no 25; assay: peptide ELISA (coated 20mer) [Figure 1]
Experimental: as §1, §2

[5] = molecular target: T5, MAGEA3 peptide no 7; assay: peptide ELISA (coated 20mer) [Figure 1]
Experimental: as §1, §2

[6] = molecular target: T6, MAGEA3 peptide no 9; assay: peptide ELISA (coated 20mer) [Figure 1]
Experimental: as §1, §2

[7] = molecular target: T7, MAGEA3 peptide no 1; assay: peptide ELISA (coated 20mer) [Figure 1]
Experimental: as §1, §2

[8] = molecular target: T8, MAGEA3 peptide no 11; assay: peptide ELISA (coated 20mer) [Figure 1]
Experimental: as §1, §2

[9] = molecular target: T9, MAGEA3 peptide no 15; assay: peptide ELISA (coated 20mer) [Figure 1]
Experimental: as §1, §2

[10] = molecular target: T10, MAGEA3 peptide no 12; assay: peptide ELISA (coated 20mer) [Figure 1]
Experimental: as §1, §2

[11] = molecular target: T11, MAGEA3 peptide no 17; assay: peptide ELISA (coated 20mer) [Figure 1]
Experimental: as §1, §2

[12] = molecular target: T12, MAGEA3 peptide no 10; assay: peptide ELISA (coated 20mer) [Figure 1]
Experimental: as §1, §2

[13] = molecular target: T13, MAGEA3 peptide no 26; assay: peptide ELISA (coated 20mer) [Figure 1]
Experimental: as §1, §2

[14] = molecular target: T14, MAGEA3 peptide no 4; assay: peptide ELISA (coated 20mer) [Figure 1]
Experimental: as §1, §2

[15] = molecular target: T15, MAGEA3 peptide no 22; assay: peptide ELISA (coated 20mer) [Figure 1]
Experimental: as §1, §2

[16] = molecular target: T16, MAGEA3 peptide no 24; assay: peptide ELISA (coated 20mer) [Figure 1]
Experimental: as §1, §2

[17] = molecular target: T17, MAGEA3 peptide no 13; assay: peptide ELISA (coated 20mer) [Figure 1]
Experimental: as §1, §2

[18] = molecular target: T18, MAGEA3 peptide no 30; assay: peptide ELISA (coated 20mer) [Figure 1]
Experimental: as §1, §2

[19] = molecular target: T19, MAGEA3 peptide no 14; assay: peptide ELISA (coated 20mer) [Figure 1]
Experimental: as §1, §2

[20] = molecular target: T20, MAGEA3 peptide no 16; assay: peptide ELISA (coated 20mer) [Figure 1]
Experimental: as §1, §2

[21] = molecular target: T21, MAGEA3 peptide no 31; assay: peptide ELISA (coated 20mer) [Figure 1]
Experimental: as §1, §2

[22] = molecular target: T22, MAGEA3 peptide no 27; assay: peptide ELISA (coated 20mer) [Figure 1]
Experimental: as §1, §2

Row | Binder | binding result [1] | binding result [2] | binding result [3] | binding result [4] | binding result [5] | binding result [6] | binding result [7] | binding result [8] | binding result [9] | binding result [10] | binding result [11] | binding result [12] | binding result [13] | binding result [14] | binding result [15] | binding result [16] | binding result [17] | binding result [18] | binding result [19] | binding result [20] | further results
1 | B1 | no binding | no binding (tested: 1 µg/ml) | no binding (tested: 1 µg/ml) | no binding (tested: 1 µg/ml) | no binding (tested: 1 µg/ml) | no binding (tested: 1 µg/ml) | no binding (tested: 1 µg/ml) | no binding (tested: 1 µg/ml) | no binding (tested: 1 µg/ml) | no binding (tested: 1 µg/ml) | no binding (tested: 1 µg/ml) | no binding (tested: 1 µg/ml) | no binding (tested: 1 µg/ml) | no binding (tested: 1 µg/ml) | no binding (tested: 1 µg/ml) | no binding (tested: 1 µg/ml) | no binding (tested: 1 µg/ml) | no binding (tested: 1 µg/ml) | no binding (tested: 1 µg/ml) | no binding (tested: 1 µg/ml) | binding result [21]: no binding (tested: 1 µg/ml); binding result [22]: no binding (tested: 1 µg/ml)
2 | B2 | no binding |  |  |  |  |  |  |  |  |  |  |  |  |  |  |  |  |  |  |  | 
3 | B3 | no binding | no binding (tested: 1 µg/ml) | no binding (tested: 1 µg/ml) | no binding (tested: 1 µg/ml) | no binding (tested: 1 µg/ml) | no binding (tested: 1 µg/ml) | no binding (tested: 1 µg/ml) | no binding (tested: 1 µg/ml) | no binding (tested: 1 µg/ml) | no binding (tested: 1 µg/ml) | no binding (tested: 1 µg/ml) | no binding (tested: 1 µg/ml) | no binding (tested: 1 µg/ml) | no binding (tested: 1 µg/ml) | no binding (tested: 1 µg/ml) | no binding (tested: 1 µg/ml) | no binding (tested: 1 µg/ml) | no binding (tested: 1 µg/ml) | no binding (tested: 1 µg/ml) | no binding (tested: 1 µg/ml) | binding result [21]: no binding (tested: 1 µg/ml); binding result [22]: no binding (tested: 1 µg/ml)
